This assay deals with T1, CD19 on the CD19-positive human leukemia cell line Nalm-6 (human, UniProt P15391 20-556).
T1 sequence (looked up): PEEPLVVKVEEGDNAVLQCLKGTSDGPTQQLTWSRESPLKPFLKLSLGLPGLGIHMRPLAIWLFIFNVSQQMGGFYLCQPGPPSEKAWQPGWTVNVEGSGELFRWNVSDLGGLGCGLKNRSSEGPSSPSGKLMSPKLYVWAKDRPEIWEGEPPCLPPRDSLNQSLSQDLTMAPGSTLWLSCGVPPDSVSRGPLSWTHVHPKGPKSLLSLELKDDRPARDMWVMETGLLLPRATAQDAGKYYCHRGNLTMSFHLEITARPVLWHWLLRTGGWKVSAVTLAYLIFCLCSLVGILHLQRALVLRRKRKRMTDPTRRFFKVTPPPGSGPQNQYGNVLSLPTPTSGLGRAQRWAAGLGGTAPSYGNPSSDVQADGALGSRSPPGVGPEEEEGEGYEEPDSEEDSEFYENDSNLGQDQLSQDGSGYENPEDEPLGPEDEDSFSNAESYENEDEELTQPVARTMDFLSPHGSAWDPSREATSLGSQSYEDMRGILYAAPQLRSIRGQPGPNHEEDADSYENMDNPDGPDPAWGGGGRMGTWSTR
In words: cell-based or functional assay.

B1: CD19-targeted chimeric antigen receptor (CAR) of SEQ ID NO. 1, expressed on the surface of CNCT19 cells (other)
chain: GSDIVLTQSPKFMSTSVGDRVSVTCKASQNVGTNVAWYQQKPGQSPKPLIYSATYRNSGVPDRFTGSGSGTDFTLTITNVQSKDLADYFCQQYNRYPYTSGGGTKLEIKRGGGGSGGGGSGGGGSQVQLQQSGAELVRPGSSVKISCKASGYAFSSYWMNWVKQRPGQGLEWIGQIYPGDGDTNYNGKFKGQATLTADKSSSTAYMQLSGLTSEDSAVYFCARKTISSVVDFYFDYWGQGTTLTVSSEFTTTPAPRPPTPAPTIASQPLSLRPEACRPAAGGAVHTRGLDFACDIYIWAPLAGTCGVLLLSLVITLYCKRGRKKLLYIFKQPFMRPVQTTQEEDGCSCRFPEEEEGGCELRVKFSRSADAPAYQQGQNQLYNELNLGRREEYDVLDKRRGRDPEMGGKPRRKNPQEGLYNELQKDKMAEAYSEIGMKGERRRGKGHDGLYQGLSTATKDTYDALHMQALPPR
With B1, the “IL-6 secreted by CNCT19 cells after 24 h co-culture with Nalm-6 target cells, effector/target ratio 2:1” value came to 32.2 pg/mL; the “INF-γ secreted by CNCT19 cells after 24 h co-culture with Nalm-6 target cells, effector/target ratio 2:1” value stood at 6190 pg/mL; the “residual rate of target cells (Nalm-6) after 24 h co-culture with CNCT19 cells, effector/target ratio 1:2, flow cytometry” value is 2.8%; the “residual rate of target cells (Nalm-6) after 24 h co-culture with CNCT19 cells, effector/target ratio 2:1, flow cytometry” value stood at 1.1%.

For the origin of these results see patent publication US20220040234A1 (JUVENTAS CELL THERAPY, published 2022).
